US20250230217A1

Molecular target: mesothelin-Fc fusion protein (human) (UniProt Q13421)
Assay: cell-based or functional assay

Chain of UniProt Q13421 (Q13421 other isoform, or with tags, fused parts or gaps limits assumed): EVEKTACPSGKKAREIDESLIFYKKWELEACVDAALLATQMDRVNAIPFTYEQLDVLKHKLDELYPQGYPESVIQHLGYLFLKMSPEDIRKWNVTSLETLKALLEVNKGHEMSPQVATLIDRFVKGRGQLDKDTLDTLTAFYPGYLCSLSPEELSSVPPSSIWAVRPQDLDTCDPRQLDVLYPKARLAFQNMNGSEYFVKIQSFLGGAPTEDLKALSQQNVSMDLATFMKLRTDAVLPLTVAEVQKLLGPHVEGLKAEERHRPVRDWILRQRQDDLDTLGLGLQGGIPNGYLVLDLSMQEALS

Substance: mesothelin-specific 28z CAR (SS1 scFv, CD28 and CD3z domains)
- Total Population Doublings (donor 1) (population doublings): 5.8
- Total Population Doublings (donor 2) (population doublings): 6.9
- Total Population Doublings (donor 3) (population doublings): 6

Substance: mesothelin-specific BBz CAR (SS1 scFv, 4-1BB and CD3z domains)
- Total Population Doublings (donor 1) (population doublings): 8.8
- Total Population Doublings (donor 2) (population doublings): 8.4
- Total Population Doublings (donor 3) (population doublings): 8.4
